According to the RNAGym collection of RNA variant scans (doi:10.1073/pnas.2313332121):

B1: TPR t1 (parent)
chain: GACCAAUCUGCCCUCAGAGCUCGAGAACAUCUUCGGAUGCAGAGGAGGCAGGCUUCGGUGGCGCGAUAGCGCCAACGUCCUCAACCUCCAAUGCAUCCCACCACAUGAUGAUGCCUGAAGAGCCUUGGUUUUUUG

Variants of: B1
Assay: polymerase ribozyme fitness, log enrichment relative to wild type (log ratio); higher = more active; in vitro selection for triplet polymerase activity
Summary of the method: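 A heterodimeric triplet polymerase ribozyme had each of its subunits mutagenized by PCR into a library, which was transcribed. One round of in vitro selection, done in triplicate, annealed each library with a biotinylated primer, its partner subunit and triplets, then incubated it frozen at −7 °C before gel excision of extended constructs, streptavidin-bead capture and RT-PCR. Fitness is the logarithm of genotype enrichment relative to wild-type enrichment, based on Illumina sequencing of inputs and outputs and inverse-variance-weighted replicate averages. A base-2 logarithm is used, and genotypes were kept only with ≥10 input reads and ≥1 read per output.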

Row | Variant | polymerase ribozyme fitness (log ratio)
1 | G47U C53A U106C | -0.879
2 | G48C C62A G63U A121G | -4.74
3 | G48U G52U C73U A90U C124G | -1.99
4 | G48U A84G U116C | -1.79
5 | G48A C82A | -1.42
6 | G48A C82G | -0.457
7 | G47U G58U C88U | -2.22
8 | G48C C49U U59A | -1.34
9 | C49A C56A U131C U133A | -0.929
10 | G48U C70U | -1.39
11 | G48U C70A | -2.08
12 | G48U C70G | -4.24
13 | C49A C124A | 1.63
14 | C49A C62G | -2.22
15 | G47A C88G U112G U133A | -5.65
16 | G48A U59A G69C A84U A118C | -3.45
17 | G47C A50U U81C C114U | -4.15
18 | G48A C56U C70A G93A | -5.28
19 | G47U C53G A105G | -4.47
20 | G47U C104A U129A | -5.96
21 | C49A U116G | -2.39
22 | G48U G93C A121G | 0.759
23 | G47A U125G | -2.16
24 | C49A A90C A103U C114A | -7.25

Row | Variant | polymerase ribozyme fitness (log ratio)
25 | C49A G51U C56A | -2.24
26 | G48C C104U | -0.793
27 | G47C C102U U112C | -1.55
28 | C49A C56U G120C U131G | 1.43
29 | C49A C56U G110C | -5.23
30 | G47C A91C G113C | -2.97
31 | G48A G63U C82G A91U G117C | -5.43
32 | G47A G48A U129A | -2.41
33 | G48U C49A C89G | -3.48
34 | G48U C86A C115U G120C | -2.47
35 | G48U C72A G113C | -2.2
36 | G47U U54C | -3.33
37 | C49A C102G C114U C115G | -6.27
38 | C49A U92C | -1.43
39 | C49A U92G | -3.98
40 | G48U C49U A91C | -2.49
41 | G47U A90G | -0.297
42 | G47U A68G C104U | -4.55
43 | G47A G51U C72U U78C | -5
44 | G47C G71A | -3.14
45 | G48U G69A U87A | -6.61
46 | G48A A75G G120A | 0.0402
47 | G48U G63A C79G | -6.13
48 | G47U C72U | -1.71

Row | Variant | polymerase ribozyme fitness (log ratio)
49 | G48U G57A C62U U78C C114A U133G | -3.01
50 | G48C C62U U87G G110C U116A | -6.41
51 | G48U C73U | -1.06
52 | G48A A50U U78A A119G G120C | 0.486
53 | G48A A105C G120A A121C G122U U129A | -3.55
54 | G48C U59C A83C C114A | -2.11
55 | G47C G61A | -0.75
56 | G47U G71A | -1.21
57 | G48A G61A | -0.0923
58 | G47A G48C G52U C79U | -3.46
59 | G47U A95U | -1.91
60 | G47C C62G A118G | -3.74
61 | G48A G61A U130A | -0.668
62 | G48C A91C U92G G120A C124U U130C | -1.63
63 | G48A G60A U78C U109A G110U | -4.9
64 | C49A G63U C94U A118G | -1.43
65 | G47U G61U | -2.36
66 | G47U G61C | -2.36
67 | G47C A84C | -0.862
68 | G47U U125G | -2.32
69 | G48U A83U C85U | -0.796
70 | G47A G61A | -2.4
71 | G47A G117C | -4.01
72 | G48C C49G U54C A95C G117A | -2.24

Row | Variant | polymerase ribozyme fitness (log ratio)
73 | G47A G113U | -2.8
74 | G47A G113C | -3.08
75 | G48U C53U U92C A100U C101U C124A U131G | -2.57
76 | C49A G51U G52U A90G A119U | -2.42
77 | G47U A66U U125G | -3.75
78 | G47A U54C C97G | -5.9
79 | G48U G61U G93U U112A C124A | -0.694
80 | G47A G51C C98A C102U C115U G127U | -7.84
81 | G47U U116C | -1.74
82 | G48A A50G G69U C76A U78C | -2.05
83 | C49G C70U | -1.3
84 | G48A C62A | -2.76
85 | C49A U55G A74C U81G A90G G117U | -2.62
86 | G47U G52A C73A C86A | -0.962
87 | C49A A50G G52U A118U | 0.379
88 | C49A C64U | -0.082
89 | G48C G61C | -2.06
90 | G47C G58A A121G G135U | 0.038
91 | G48A C72A C115A | -0.421
92 | G47U C56U C72U U116C | -3.11
93 | G48U C88G U96A | -3.43
94 | G48A C73A | -0.973
95 | G48U A95U A105U U125A | -4.37
96 | G48C G61C C123G | -0.406

Row | Variant | polymerase ribozyme fitness (log ratio)
97 | G48U C89U C124G G128A | -0.497
98 | G47C G52C G120U C123A | -1.92
99 | G47C C56A G110U | -5.35
100 | G48U U55G G69A | -2.77
101 | C49G C53A C64U | -0.365
102 | G48A C94G | -1.71
103 | C49A G61U U81C G128U | -4.52
104 | C49A C53A C70U C86A U112G G128A | -5.42
105 | G48C G60A G93A | -0.836
106 | G48A G63A | -1.14
107 | G47C C62G G120C G128A | -5.53
108 | G47A G51U U55A C98A G113C | -7.22
109 | G48A U59A C72G G120U G135A | -2.76
110 | G48A C86U | -0.5
111 | G48A C86A | -0.909
112 | G48A C85G | -2.75
113 | G48A U87A G120C C124G | 0.521
114 | C49A U81C | -2.67
115 | G48C G77U C89U C123U | -0.348
116 | C49A U78C | -0.24
117 | G48C C49U U106G | -2.77
118 | G47A G58C G113A A121C U125C U131C | -0.547
119 | G47C C49U | -2.12
120 | G47A G69U C98U C99U | -2.9

Row | Variant | polymerase ribozyme fitness (log ratio)
121 | G47C C56A | -2.47
122 | C49G C56A C94U A111G | -1.5
123 | G47A C72A | -0.266
124 | G47A C72U | -0.456
125 | C49A G52U A105U | -3.88
126 | G47C A108G U112A | -5.05
127 | G48C C56U G77A G110A | -2.29
128 | G47U G60U | -1.15
129 | G48A C80U U96A C114U | -3.73
130 | G48U C56A | -1.75
131 | G48U C56U | -0.606
132 | G48A C73A U92A C115U | -5.26
133 | C49G A95U A111G | -0.422
134 | C49G A50U C72A C94A | -2.42
135 | G47A U96G G120U | -1.94
136 | G48C G135U | -1.05
137 | G48A C72U C94U G127A | -2.68
138 | C49A G57U G127U | -1.6
139 | G48A C72U | -0.785
140 | G48A C72A | -0.519
141 | G48A C72G | -0.135
142 | G47C C64U | -2.48
143 | C49A G93U U125A U131G | -2.24
144 | G47U G61A C123A | -0.25

Row | Variant | polymerase ribozyme fitness (log ratio)
145 | G47A U54C G77A C82A G110A C123A | -3.8
146 | G48U U78C U92A A105U A121U | -5.76
147 | G48C C79U C101A | -1.57
148 | G47U C53G C62A | -2.11
149 | C49A G122A | -0.428
150 | C49A U112A | 1.49
151 | G48U A74U | -0.741
152 | G47U G60A G117A | -3.41
153 | C49A A75U C85G | -1.4
154 | G47U C64U A121U | 0.804
155 | G48A G120C | 0.921
156 | G48U C73G A95G | -1.55
157 | C49A U81A U87G | -0.13
158 | C49A C70G U130C | -3.2
159 | C49G C62U | -0.813
160 | G47U A91C G113A U130A | -3.79
161 | G48A C79A U126C | -2.73
162 | G47U C62G | -3.76
163 | G48A C56U C86A C94A A111C | -2.79
164 | G48A C73U C82G | -0.747
165 | G47C C49G U96A | -2.52
166 | G47U C64U | -1.51
167 | G47U C53A C70U U126C | -2.43
